# Data from the RNAGym collection of RNA variant scans (doi:10.1021/acssynbio.7b00057).
# B1: Pistol ribozyme (parent)
# chain: GGGUCGUUGUUCCAUAAUCGCGUGGAUAUGGCACGCAAGUUUCUACCGGGCACCGUAAAUGUCCGACUGGAGCCGUUCGGGCGGCUAUAAACAGACCUCAGGCCCGAAGCGUGGCGGCACCUGCCGCCGGUGGUAAAAAAGAUCGGAAGAGCACACGUCU
# Variants of: B1
# Experiment: aptazyme ON/OFF ratio, guanine; higher = stronger switching; co-transcriptional cleavage with and without guanine
row,Variant,aptazyme ON/OFF ratio
1,U7G U8G U10A U11C C12U,1.42
2,U7G U8G U10G U11A C12U,1.36
3,U7A U8A U10G U11A C13G,1.16
4,U7C U8C G9A U10G U11G C12G C13G,1.14
5,U8C G9C U10G C13U,1.11
6,U8A U10A U11A C12G,1.07
7,U7C U8G G9A U11G C13U,1.13
8,U7C G9A U11G C12A C13G,1.25
9,U7C U8A G9C U10C U11C C12U,1.02
10,U8G G9A U10G U11A C13U,1.14
11,U8G U10A U11G C12A C13G,1.12
12,U8G G9U U10G U11C C12A C13U,1.03
13,U7C U8A G9C U10C U11C C12U C13U,1.02
14,U7G U8A G9A U10G C13U,1.35
15,U7A U8G G9A U10C U11C C12A C13G,1.22
16,U7G U8A G9C C13U,1.04
17,U7G U8C G9C U10A U11G,1.51
18,U7A U8A G9C U10C U11A C12G C13G,1.06
19,U7A U8C G9U U10G U11A C12G C13A,1.22
20,U7C U8C G9A C12A C13U,1.42
21,U7C U8A G9C U10G U11A C12U C13A,1.16

row,Variant,aptazyme ON/OFF ratio
1,U7C U10A C12A,1.22
2,U7A G9A U10G U11G,1.08
3,U7A U8G G9A U10C U11G,1.74
4,U7G U8C G9A U10G U11A C13U,1.05
5,U7C U8C G9A U10G U11A C12U C13A,1.19
6,U7A U8C U11G C12G C13G,1.1
7,U8C U10A U11G C13G,1.29
8,U7C G9C U10C U11C C12G,1.03
9,U7C U8A C12G C13G,1.23
10,U7A U8G G9U U10C U11C C12U C13G,1.2
11,U7C G9A U10C U11A C12U C13A,1.21
12,U7C G9U U10C U11C C13G,1.06
13,U7A U8A G9U U10A U11A C12U,1.34
14,U7G U8C G9C U10G U11G C13U,1.06
15,U7A G9C U10G U11C C13G,1.05
16,U8A U11G C12U,1.28
17,U7G U8G G9U U10C U11G C12G,1.39
18,U7C U8C C13A,1.21
19,U8A G9U U11A C12G C13G,1.3
20,U7G G9C U10G U11A C13G,1.16
21,U8G G9U U10C U11A C12U C13G,1.11

row,Variant,aptazyme ON/OFF ratio
1,U7A U8A G9U U11G C12A C13A,1.29
2,U7A U8A G9A U10C U11C C13A,1.01
3,U7C U8G G9C U10C U11G C12A,1.03
4,U7C U8C G9U U10G C13A,1.21
5,U7C U8A G9U U10C U11A C12G C13G,1.09
6,U7G U8G G9C U10G C13A,1.31
7,U7A U8A G9U U11G C12G C13A,1.22
8,U7G U8G G9A U11C,1.54
9,U8G G9U,3.25
10,U7G U8G G9U U10G U11A C13U,1.19
11,U7C U8G G9C U10C C13A,1.06
12,U7C U8G G9A U11G C12A,1.09
13,U7A U8C G9U U10A U11A C12G,1.27
14,U7C U8G G9U U10G U11G C12U,1.28
15,U7C U8G G9U U10C U11A C12A C13G,1.15
16,U7C U8A G9C U10C U11C C12G C13A,1.04
17,U7G G9C U10C U11C C12U C13G,1.07
18,U7G U8G G9U U10C U11C C12U C13G,1.41
19,U8C G9C U10C U11A C12U C13G,1.02
20,U7C G9C U10C U11G C12A C13A,1.14
21,U7A U8A U10G U11G C13G,1.12

row,Variant,aptazyme ON/OFF ratio
1,U8A G9U U10A U11G C13A,1.23
2,U7C U8C G9C U10G U11G C12G C13G,1.09
3,U7G U10A U11A C13U,1.11
4,U7A U8G U11C C13A,1.51
5,U7C U8G G9C U10G U11C C12U C13U,1.21
6,U7G G9A U10A U11A C13G,1.09
7,U7A U8C G9A U10A U11A C12U,1.25
8,U7C U8A G9C U10C U11C C12A C13A,1.04
9,U7G U8A G9C U10A U11C C12A,1.05
10,G9C C12U C13G,1.04
11,U7C U8A G9U U10G U11A C12A C13U,1.21
12,U7G U8G G9U U10G U11G C13A,1.06
13,U8C G9C U10G U11G C12U C13U,1.09
14,U7C U11G C12A C13A,1.16
15,U7G U8C G9C U10G U11C C13A,1.15
16,U7C U8C U11C C12A C13G,1.18
17,U7G U8C G9A U10C U11G C13A,1.16
18,U11G C12U C13U,1.11
19,U7C G9U U11A C12G,1.33
20,U7A U8A G9A U10G U11G C12G C13U,1.44
